In article PMC11514443 (Structure (London, England : 1993), 2019):

Tested on: A/Udorn/72 (H3N2) influenza virus
Assay type: cell-based, A/Udorn/72 (H3N2) influenza virus; human HEK293T cells

B1: WT MORC3 (protein, UniProt Q14149 1-939, looked up)
MORC family CW-type zinc …: MAAQPPRGIRLSALCPKFLHTNSTSHTWPFSAVAELIDNAYDPDVNAKQIWIDKTVINDHICLTFTDNGNGMTSDKLHKMLSFGFSDKVTMNGHVPVGLYGNGFKSGSMRLGKDAIVFTKNGESMSVGLLSQTYLEVIKAEHVVVPIVAFNKHRQMINLAESKASLAAILEHSLFSTEQKLLAELDAIIGKKGTRIIIWNLRSYKNATEFDFEKDKYDIRIPEDLDEITGKKGYKKQERMDQIAPESDYSLRAYCSILYLKPRMQIILRGQKVKTQLVSKSLAYIERDVYRPKFLSKTVRITFGFNCRNKDHYGIMMYHRNRLIKAYEKVGCQLRANNMGVGVVGIIECNFLKPTHNKQDFDYTNEYRLTITALGEKLNDYWNEMKVKKNTEYPLNLPVEDIQKRPDQTWVQCDACLKWRKLPDGMDQLPEKWYCSNNPDPQFRNCEVPEEPEDEDLVHPTYEKTYKKTNKEKFRIRQPEMIPRINAELLFRPTALSTPSFSSPKESVPRRHLSEGTNSYATRLLNNHQVPPQSEPESNSLKRRLSTRSSILNAKNRRLSSQFENSVYKGDDDDEDVIILEENSTPKPAVDHDIDMKSEQSHVEQGGVQVEFVGDSEPCGQTGSTSTSSSRCDQGNTAATQTEVPSLVVKKEETVEDEIDVRNDAVILPSCVEAEAKIHETQETTDKSADDAGCQLQELRNQLLLVTEEKENYKRQCHMFTDQIKVLQQRILEMNDKYVKKETCHQSTETDAVFLLESINGKSESPDHMVSQYQQALEEIERLKKQCSALQHVKAECSQCSNNESKSEMDEMAVQLDDVFRQLDKCSIERDQYKSEVELLEMEKSQIRSQCEELKTEVEQLKSTNQQTATDVSTSSNIEESVNHMDGESLKLRSLRVNVGQLLAMIVPDLDLQQVNYDVDVVDEILGQVVEQMSEISST
viral infectivity: slight increase in viral infectivity
